B1: wild-type N-terminal domain of major ampullate spidroin 1 (MaSp1) from Euprosthenops australis [Euprosthenops australis] / itself (parent)
chain: SHTTPWTNPGLAENFMNSFMQGLSSMPGFTASQLDDMSTIAQSMVQSIQSLAAQGRTSPNKLQALNMAFASSMAEIAASEEGGGSLSTKTSSIASAMSNAFLQTTGVVNQPFINEITQLVSMFAQAGMNDVSA

Variants of: B1
Test: high-resolution SEC
Details: with itself; read off a plot

Kd [nM] | Variant
160 | SHTTPWTNPGLAENFLNSFLQGLSSMPGFTASQLDDMSTIAQSMVQSIQSLAAQGRTSPNKLQALNMAFASSMAEIAASEEGGGSLSTKTSSIASAMSNAFLQTTGVVNQPFINEITQLVSMFAQAGMNDVSA
660 | SHTTPWTNPGLAENFLNSFLQGLSSMPGFTASQLDDLSTIAQSLVQSIQSLAAQGRTSPNKLQALNMAFASSMAEIAASEEGGGSLSTKTSSIASAMSNAFLQTTGVVNQPFINEITQLVSMFAQAGMNDVSA
1000 | SHTTPWTNPGLAENFLNSFLQGLSSMPGFTASQLDDLSTIAQSLVQSIQSLAAQGRTSPNKLQALNMAFASSLAEIAASEEGGGSLSTKTSSIASAMSNAFLQTTGVVNQPFINEITQLVSMFAQAGMNDVSA
750 | SHTTPWTNPGLAENFLNSFLQGLSSMPGFTASQLDDLSTIAQSMVQSIQSLAAQGRTSPNKLQALNMAFASSMAEIAASEEGGGSLSTKTSSIASAMSNAFLQTTGVVNQPFINEITQLVSMFAQAGMNDVSA
